In patent publication JP2006347922A (dated 2006):

Key:
Test in all cases: ELISA, coated protein
BSA(ウシ血清アルブミン) = target: T1, BSA(ウシ血清アルブミン) (ウシ, UniProt P02769 25-607)
T1 construct: also called BSA

HSA(ヒト血清アルブミン) = target: T2, HSA(ヒト血清アルブミン) (ヒト, UniProt P02768 25-609)
T2 construct: also called HSA

Human-hemoglobin = Human-hemoglobin (human, UniProt P69905 2-142; P68871 2-147)

Measured: binding result

Human-hemoglobin, sequence (P69905 2-142 limits assumed, chain 1 of 2): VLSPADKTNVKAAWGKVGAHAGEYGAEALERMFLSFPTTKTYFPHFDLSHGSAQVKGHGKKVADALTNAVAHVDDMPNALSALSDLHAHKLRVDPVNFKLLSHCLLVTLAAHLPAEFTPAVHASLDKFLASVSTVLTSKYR
Human-hemoglobin, sequence (P68871 2-147 limits assumed, chain 2 of 2): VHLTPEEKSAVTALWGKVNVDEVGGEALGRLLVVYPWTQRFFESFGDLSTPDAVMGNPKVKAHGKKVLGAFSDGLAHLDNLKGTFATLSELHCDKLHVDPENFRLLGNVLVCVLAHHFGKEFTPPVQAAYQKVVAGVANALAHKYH
T2 sequence (P02768 25-609): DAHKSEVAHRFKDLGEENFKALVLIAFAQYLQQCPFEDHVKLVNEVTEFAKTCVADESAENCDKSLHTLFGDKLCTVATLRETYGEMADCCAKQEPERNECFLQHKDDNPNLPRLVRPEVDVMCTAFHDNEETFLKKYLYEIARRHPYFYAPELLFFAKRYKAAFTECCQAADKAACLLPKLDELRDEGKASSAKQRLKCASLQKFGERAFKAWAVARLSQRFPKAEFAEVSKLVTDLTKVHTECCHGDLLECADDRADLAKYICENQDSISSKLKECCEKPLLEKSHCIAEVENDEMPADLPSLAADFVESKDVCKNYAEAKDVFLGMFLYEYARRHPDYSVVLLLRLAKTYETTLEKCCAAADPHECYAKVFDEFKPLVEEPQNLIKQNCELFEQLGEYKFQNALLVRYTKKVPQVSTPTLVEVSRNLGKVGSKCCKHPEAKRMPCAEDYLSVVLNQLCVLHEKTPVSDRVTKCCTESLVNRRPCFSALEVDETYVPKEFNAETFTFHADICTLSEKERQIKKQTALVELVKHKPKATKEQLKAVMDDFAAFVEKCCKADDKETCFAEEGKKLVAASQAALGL
T1 sequence (P02769 25-607 limits assumed): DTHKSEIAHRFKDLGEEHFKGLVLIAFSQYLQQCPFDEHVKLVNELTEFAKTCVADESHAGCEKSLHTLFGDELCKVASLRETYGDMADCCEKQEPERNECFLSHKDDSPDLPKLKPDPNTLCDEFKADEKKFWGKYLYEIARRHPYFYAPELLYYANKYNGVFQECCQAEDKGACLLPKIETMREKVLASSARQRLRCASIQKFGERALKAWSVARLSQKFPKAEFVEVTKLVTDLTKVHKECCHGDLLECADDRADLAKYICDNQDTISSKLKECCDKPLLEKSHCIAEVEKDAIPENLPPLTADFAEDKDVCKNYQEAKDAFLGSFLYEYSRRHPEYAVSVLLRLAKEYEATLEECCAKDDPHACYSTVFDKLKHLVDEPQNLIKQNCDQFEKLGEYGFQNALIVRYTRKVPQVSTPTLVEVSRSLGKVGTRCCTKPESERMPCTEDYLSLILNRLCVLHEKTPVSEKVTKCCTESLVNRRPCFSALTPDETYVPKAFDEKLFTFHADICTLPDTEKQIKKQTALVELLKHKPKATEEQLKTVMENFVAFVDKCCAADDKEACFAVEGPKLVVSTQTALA

B1: モノクロナール抗体(抗体酵素)HA1−1 (antibody, V domains shown)
VH: QVQLQQSGPQLVRPGASVKISCKTSGYSFTTYWMHWVKQRPGQGLDWIGMIDPSESETRLNQKFKDKATLTVDKSSSTADMQLSSPTSEDSAVYYCASYEGYWGQGTLVTVS
VL: DIVMSQSPSSLAVSAGEKVTMSCKSSQSLLNSRTRKNYLAWYQQKPGQSPKLLIYWASARESGVPDRFTGSGSGTDFTLTISSVQAEDLAVYYCKQSYTLTWTFGGGTKVEIKR
notes: also called HA1-1; HA1−1抗体
no binding: BSA(ウシ血清アルブミン) | HSA(ヒト血清アルブミン) | Human-hemoglobin

B2: モノクロナール抗体(抗体酵素)HA1−2 (antibody, V domains shown)
VH: QVQLQQSGPHLVRPGTSVRISCKASGYSFTSYWMHWVKQRPGQGLEWIGMIAPSDSETGLNQKFKDKATLTVDKSSSTAYIQLSSPTSEDSAVYYCASYEAYWGQGTLVTVS
VL: DIVMSQSPSSLAVSVGEKVTMSCKSSQSLLNSRARKNYLAWYQQKPGQSPKLLIYWASTRESGVPDRFTGSGSGTDFTLTISSVQAEDLAVYYCKQSYNVTWTFGGGTKLEIKR
notes: also called HA1-2; HA1−2抗体
no binding: BSA(ウシ血清アルブミン) | HSA(ヒト血清アルブミン) | Human-hemoglobin
